Source: patent US20260284221 (published 2026)

How the values were obtained:
Assay in all cases: BLI pH 7.4
[1] = target: T1, Rhesus macaque Trop2 (rhesus macaque)
T1 chain: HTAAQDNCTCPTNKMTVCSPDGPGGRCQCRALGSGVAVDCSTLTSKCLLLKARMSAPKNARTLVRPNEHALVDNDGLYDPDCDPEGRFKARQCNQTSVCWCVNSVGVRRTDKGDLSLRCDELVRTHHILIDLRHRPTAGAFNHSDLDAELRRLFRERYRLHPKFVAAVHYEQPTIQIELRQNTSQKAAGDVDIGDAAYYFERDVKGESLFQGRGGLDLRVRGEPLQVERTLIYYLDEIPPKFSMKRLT

[2] = target: T2, Mouse Trop2 (mouse, UniProt Q8BGV3)
T2 chain: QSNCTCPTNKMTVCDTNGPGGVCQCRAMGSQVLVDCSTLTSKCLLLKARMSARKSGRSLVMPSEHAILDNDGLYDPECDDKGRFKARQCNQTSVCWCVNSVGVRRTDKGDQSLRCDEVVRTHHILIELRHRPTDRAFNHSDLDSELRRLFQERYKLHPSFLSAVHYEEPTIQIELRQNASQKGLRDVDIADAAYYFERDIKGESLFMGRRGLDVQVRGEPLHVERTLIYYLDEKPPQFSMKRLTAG

[3] = target: T3, Human Trop2 (human, UniProt P09758)
T3 chain: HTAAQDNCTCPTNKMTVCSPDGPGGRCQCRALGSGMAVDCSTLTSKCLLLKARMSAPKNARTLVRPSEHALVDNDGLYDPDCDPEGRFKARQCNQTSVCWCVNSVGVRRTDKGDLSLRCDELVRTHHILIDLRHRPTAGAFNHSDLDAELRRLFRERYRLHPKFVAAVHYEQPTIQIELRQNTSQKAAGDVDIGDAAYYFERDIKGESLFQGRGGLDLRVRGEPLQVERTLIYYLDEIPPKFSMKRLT

[4] = target: T4, Rat Trop2 (rat, UniProt Q6P9Z6)
T4 chain: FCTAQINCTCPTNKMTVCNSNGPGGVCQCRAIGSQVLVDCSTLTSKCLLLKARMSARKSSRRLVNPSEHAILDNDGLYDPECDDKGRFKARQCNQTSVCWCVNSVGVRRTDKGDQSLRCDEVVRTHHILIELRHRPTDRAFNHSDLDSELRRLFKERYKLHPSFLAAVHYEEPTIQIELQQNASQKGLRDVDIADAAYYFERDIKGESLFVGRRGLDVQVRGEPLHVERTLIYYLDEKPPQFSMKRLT

Kd [1]: < 0.001 nM
binding result [2]: no binding
Kd [3]: 22.6 nM
binding result [4]: no binding
B1: L2-conjugated anti-Trop2 antibody (IB12) (antibody, V domains shown)
VH: EVQLVESGGGLVQPGGSLRLSCAASGFTFNNYAMSWVRQAPGKGLEWVSTISSDGTYTYYADSVKGRFTISRDNSKNTLYLQMNSLRAEDTAVYYCARHPPSYYYAFDYWGQGTTLTVSS
VL: EIVLTQSPGTLSLSPGERATLSCRASESVDSYGNSFIHWYQQKPGQAPRLLIYLASNLESGIPDRFSGSGSGTDFTLTISRLEPEDFAVYYCQQNNEDLWTFGGGTKLEIK
modifications: conjugated with L2 linker; heavy constant SEQ2, light constant SEQ4
